We go through 14 molecules from patent publication US20100143349A1 (Pfizer, published 2010).

B1: 3B7 scFv (scFv)
scFv: DIQMTQSPSSLSASVGDRVTITCRASQDVGIYVNWFQQKPGKAPRRLIYRATNLADGVPSRFSGSRSGTDFTLTISSLQPEDFATYYCLQFDSHPLTFGGGTKVEIKDGGGSGGGGSGGGGSSEVQLVESGGGLVQPGGSLRLSCAASGFTFNNYWMTWVRQAPGKGLEWVASIDNSGDNTYYPDSVKDRFTISRDNAKNSLYLQMNSLRAEDTAVYYCARGGDITTGFDYWGQGTLVTVSS
B2: 6C10 scFv (scFv)
scFv: DIQMTQSPSSLSASVGDRVTITCRASQDVGIYVNWFQQKPGKAPRRLIYRATNLADGVPSRFSGSRSGTDFTLTISSLQPEDFATYYCLQFDEHPLTFGGGTKVEIKDGGGSGGGGSGGGGSSEVQLVESGGGLVQPGGSLRLSCAASGFTFNNYWMTWVRQAPGKGLEWVASIDNSGDNTYYPDSVKDRFTISRDNAKNSLYLQMNSLRAEDTAVYYCARGGDITTGFDYWGQGTLVTVSS
B3: 3D6 scFv (scFv)
scFv: DIQMTQSPSSLSASVGDRVTITCRASQDVGIYVNWFQQKPGKAPRRLIYRATNLADGVPSRFSGSRSGTDFTLTISSLQPEDFATYYCLEFDEHPLTFGGGTKVEIKDGGGSGGGGSGGGGSSEVQLVESGGGLVQPGGSLRLSCAASGFTFNNYWMTWVRQAPGKGLEWVASIDNSGDNTYYPDSVKDRFTISRDNAKNSLYLQMNSLRAEDTAVYYCARGGDIRVMLDLWGQGTLVTVSS
B4: 3E8 scFv (scFv)
scFv: DIQMTQSPSSLSASVGDRVTITCRASQDVGIYVNWFQQKPGKAPRRLIYRATNLADGVPSRFSGSRSGTDFTLTISSLQPEDFATYYCLQFDVHPLTFGGGTKVEIKDGGGSGGGGSGGGGSSEVQLVESGGGLVQPGGSLRLSCAASGFTFNNYWMTWVRQAPGKGLEWVASIDNSGDNTYYPDSVKDRFTISRDNAKNSLYLQMNSLRAEDTAVYYCARGGDITTGFDYWGQGTLVTVSS
B5: 3B9 scFv (scFv)
scFv: DIQMTQSPSSLSASVGDRVTITCRASQDVGIYVNWFQQKPGKAPRRLIYRATNLADGVPSRFSGSRSGTDFTLTISSLQPEDFATYYCLQFDNHPLTFGGGTKVEIKDGGGSGGGGSGGGGSSEVQLVESGGGLVQPGGSLRLSCAASGFTFNNYWMTWVRQAPGKGLEWVASIDNSGDNTYYPDSVKDRFTISRDNAKNSLYLQMNSLRAEDTAVYYCARGGDITTGFDYWGQGTLVTVSS
B6: 3D5 scFv (scFv)
scFv: DIQMTQSPSSLSASVGDRVTITCRASQDVGIYVNWFQQKPGKAPRRLIYRATNLADGVPSRFSGSRSGTDFTLTISSLQPEDFATYYCLEFDEHPLTFGGGTKVEIKDGGGSGGGGSGGGGSSEVQLVESGGGLVQPGGSLRLSCAASGFTFNNYWMTWVRQAPGKGLEWVASIDNSGDNTYYPDSVKDRFTISRDNAKNSLYLQMNSLRAEDTAVYYCARGGDIKVGLDLWGQGTLVTVSS
B7: 3G8 scFv (scFv)
scFv: DIQMTQSPSSLSASVGDRVTITCRASQDVGIYVNWFQQKPGKAPRRLIYRATNLADGVPSRFSGSRSGTDFTLTISSLQPEDFATYYCLQYDAHPLTFGGGTKVEIKDGGGSGGGGSGGGGSSEVQLVESGGGLVQPGGSLRLSCAASGFTFNNYWMTWVRQAPGKGLEWVASIDNSGDNTYYPDSVKDRFTISRDNAKNSLYLQMNSLRAEDTAVYYCARGGDITTGFDYWGQGTLVTVSS
B8: 6A10 scFv (scFv)
scFv: DIQMTQSPSSLSASVGDRVTITCRASQDVGIYVNWFQQKPGKAPRRLIYRATNLADGVPSRFSGSRSGTDFTLTISSLQPEDFATYYCLQFDAHPLTFGGGTKVEIKDGGGSGGGGSGGGGSSEVQLVESGGGLVQPGGSLRLSCAASGFTFNNYWMTWVRQAPGKGLEWVASIDNSGDNTYYPDSVKDRFTISRDNAKNSLYLQMNSLRAEDTAVYYCARGGDITTGFDYWGQGTLVTVSS
B9: 6E3 scFv (scFv)
scFv: DIQMTQSPSSLSASVGDRVTITCRASQDVGIYVNWFQQKPGKAPRRLIYRATNLADGVPSRFSGSRSGTDFTLTISSLQPEDFATYYCLEFDEHPLTFGGGTKVEIKDGGGSGGGGSGGGGSSEVQLVESGGGLVQPGGSLRLSCAASGFTFNNYWMTWVRQAPGKGLEWVASIDNSGDNTYYPDSVKDRFTISRDNAKNSLYLQMNSLRAEDTAVYYCARGGDIRVSLDFWGQGTLVTVSS
B10: 6C11 scFv (scFv)
scFv: DIQMTQSPSSLSASVGDRVTITCRASQDVGIYVNWFQQKPGKAPRRLIYRATNLADGVPSRFSGSRSGTDFTLTISSLQPEDFATYYCLQYDAHPLTFGGGTKVEIKDGGGSGGGGSGGGGSSEVQLVESGGGLVQPGGSLRLSCAASGFTFNNYWMTWVRQAPGKGLEWVASIDNSGDNTYYPDSVKDRFTISRDNAKNSLYLQMNSLRAEDTAVYYCARGGDITTGFDYWGQGTLVTVSS
B11: 3G3 scFv (scFv)
scFv: DIQMTQSPSSLSASVGDRVTITCRASQDVGIYVNWFQQKPGKAPRRLIYRATNLADGVPSRFSGSRSGTDFTLTISSLQPEDFATYYCLEFDEHPLTFGGGTKVEIKDGGGSGGGGSGGGGSSEVQLVESGGGLVQPGGSLRLSCAASGFTFNNYWMTWVRQAPGKGLEWVASIDNSGDNTYYPDSVKDRFTISRDNAKNSLYLQMNSLRAEDTAVYYCARGGDIKVSLDHWGQGTLVTVSS
B12: 3C6 scFv (scFv)
scFv: DIQMTQSPSSLSASVGDRVTITCRASQDVGIYVNWFQQKPGKAPRRLIYRATNLADGVPSRFSGSRSGTDFTLTISSLQPEDFATYYCLEFDEHPLTFGGGTKVEIKDGGGSGGGGSGGGGSSEVQLVESGGGLVQPGGSLRLSCAASGFTFNNYWMTWVRQAPGKGLEWVASIDNSGDNTYYPDSVKDRFTISRDNAKNSLYLQMNSLRAEDTAVYYCARGGDIVVGLDHWGQGTLVTVSS
B13: 6E5 scFv (scFv)
scFv: DIQMTQSPSSLSASVGDRVTITCRASQDVGIYVNWFQQKPGKAPRRLIYRATNLADGVPSRFSGSRSGTDFTLTISSLQPEDFATYYCLEFDEHPLTFGGGTKVEIKDGGGSGGGGSGGGGSSEVQLVESGGGLVQPGGSLRLSCAASGFTFNNYWMTWVRQAPGKGLEWVASIDNSGDNTYYPDSVKDRFTISRDNAKNSLYLQMNSLRAEDTAVYYCARGGDIRVMLDVWGQGTLVTVSS
B14: 6A12 scFv (scFv)
scFv: DIQMTQSPSSLSASVGDRVTITCRASQDVGIYVNWFQQKPGKAPRRLIYRATNLADGVPSRFSGSRSGTDFTLTISSLQPEDFATYYCLQYDAHPLTFGGGTKVEIKDGGGSGGGGSGGGGSSEVQLVESGGGLVQPGGSLRLSCAASGFTFNNYWMTWVRQAPGKGLEWVASIDNSGDNTYYPDSVKDRFTISRDNAKNSLYLQMNSLRAEDTAVYYCARGGDITTGFDYWGQGTLVTVSS

The target in this assay is T1, hRAGE-Fc (human, UniProt Q15109 23-342, biotin label in the selections and HTRF assays).
T1 construct: extracellular domain; also called biotin labeled hRAGE-Fc; Biotin-labeled RAGE-Fc; not shown: Fc part
T1 sequence (Q15109 23-342): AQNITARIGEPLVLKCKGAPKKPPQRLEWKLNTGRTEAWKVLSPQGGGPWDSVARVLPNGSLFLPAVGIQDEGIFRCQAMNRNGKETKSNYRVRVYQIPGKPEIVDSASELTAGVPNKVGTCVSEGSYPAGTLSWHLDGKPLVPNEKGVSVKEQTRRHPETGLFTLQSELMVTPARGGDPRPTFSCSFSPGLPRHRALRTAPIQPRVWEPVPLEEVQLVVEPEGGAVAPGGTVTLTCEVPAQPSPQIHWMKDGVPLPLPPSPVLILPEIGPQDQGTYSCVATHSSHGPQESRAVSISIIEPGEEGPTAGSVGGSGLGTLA
Put plainly: HTRF competition, scFv vs labelled parental XT-M4 (competitor) on biotin hRAGE-Fc. The procedure:
Increases in binding to RAGE antigen were detected with the aid of a competition assay using parental XT-M4 antibody. Both phage display and ribosome display libraries were selected for affinity improved variants by incubating with biotin labeled hRAGE-Fc, recovering binding clones using streptavidin magnetic beads and washing away non binding variants. Sequential rounds of selection were carried on decreasing antigen concentrations to drive the preferential recovery of higher affinity variants. Clones recovered after selection were subsequently screening for improved binding to hRAGE-Fc using HTRF. This is an assay that measures the decrease in fluorescence upon binding of parental europium cryptate-labeled XT-M4 to RAGE in the presence of competing test scFv antibodies. In these assays, periplasmic preparations of scFv were prepared from bacterial cultures and added in increasing concentrations to a combination of parental antibody and antigen. The ability of the scFV to compete with parental XT-M4 antibody to bind to Biotin-labeled RAGE-Fc was determined. In the presence of avidin-XL665 complex labeled XT-M4 bound to biotinylated RAGE-FC was detected by Fluorescence. Increasing amounts of scFv that competed with the XT-M4 for binding to biotinylated-RAGE-Fc was detected as a decrease in fluorescence. A sequential process of screening was used to focus in on a smaller number of clones with the greatest competition in HTRF assay
(Time-resolved FRET reads energy transfer from a long-lived donor to a nearby acceptor.)
B1: the IC50 was 7.35 nM.
In the case of B2 it was 7.38 nM; in that of B3, 2.92 nM; in that of B4, 7.21 nM.
In the case of B5 it was 10.6 nM.
In the case of B6 it was 3 nM; in that of B7, 8.08 nM; in that of B8, 6.94 nM.
As to B9, the IC50 turned out to be 1.75 nM.
In the case of B10 it was 9.03 nM; in that of B11, 1.44 nM; in that of B12, 1.26 nM.
B13: the IC50 worked out at 2.25 nM.
Take B14: the IC50 amounted to 8.27 nM.

A word on the IC50: it is the point on the concentration scale where inhibition reaches its midpoint.
